“Also recorded” adds a separate entry of the source.

Here are results for three molecules from patent US20230263891A1, “SONOGENETIC STIMULATION OF CELLS EXPRESSING TRPA1” (Salk Institute for Biological Studies, priority 2020, published 2023).

The test system of one data set is HEK cells. In kind it is cell-based, human. Particulars: 0.1% , positive control. An excerpt: FIGS. 6A-6J: Ultrasound stimulation at 2.5 MPa is safe as assessed by intracellular uptake of propidium iodide. FIG. 6A: Image showing bright field (BF) image for GCaMP6f-HEK cells, and the corresponding GFP channel (FIG. 6B) and propidium iodide channel (FIG. 6C) before ultrasound stimulation. Multiple trials with ultrasound stimulation at 2.5 MPa 100 ms had no effect on the intracellular levels of propidium iodide (FIG. 6D) n=3 stims. FIG. 6E: Image showing HEK cells used for the positive control, including GFP channel (FIG. 6F) and propidium iodide channel before treatment (FIG. 6G). […] Time course for the propidium iodide signal for an ultrasound stimulated cell highlighted in FIG. 6A, shown in FIG. 6I, and for a cell treated with […] highlighted in FIG. 6E, shown in FIG. 6J. Scale bar, 20 μm.
To facilitate rapid screening of ultrasound-triggered cellular responses, an optical imaging setup was aligned with a custom designed transducer. In particular, a single-crystal 6.91 MHz lithium niobate transducer (FIG. 1A) that lacks hysteresis and generates minimal heat as it converts electrical input into mechanical energy was designed. Such a transducer reduced ultrasound-triggered temperature changes. […]

The target in the next data set is human-TRPV1 (Homo sapiens, UniProt Q8NER1). In kind it is cell-based. Particulars: capsaicin 3 μM.
For data set [1], the system named is Human Embryonic Kidney 293T (HEK) cells. The data set is described as follows: Ultrasound-evoked GCaMP6f calcium response of HEK cells transfected with candidate channels (screen and TRPA1 variants). It counts as cell-based. Particulars: for Response to ultrasound stimulation (cells activated, GCaMP6f): transfected GCaMP6f HEK cells, 6.91 MHz, screen at 100 msecs, 1.5 MPa.

The subject of the next data set is excitable HEK cells. The data set can be described thus: Patch-clamp electrophysiology of excitable HEK cells expressing TRPA1 channel polypeptides under ultrasound. It counts as cell-based, human. On the technique in general: In patch-clamp work, channel activity is measured electrically.
For data set [2], the system named is mouse primary cortical neurons. The data set can be described thus: GCaMP6f calcium imaging of primary cortical neurons under ultrasound or AITC. It counts as cell-based.
The next data set relates to rat primary neurons. The data set is described as follows: Whole-cell patch clamp (voltage and current clamp) of primary neurons under ultrasound. It counts as cell-based.
Data set [3] relates to layer V motor cortical neurons. The data set can be described thus: c-fos expression in cortical neurons after ultrasound in vivo. Further details: species or system mouse.
Data set [4] can be described thus: Rotarod motor learning task. Particulars: cortical expression; 5 days.
Where [5] appears, read: hsTRPA1-expressing primary neurons, ultrasound.

Chain of human-TRPV1 (Q8NER1 whole entry): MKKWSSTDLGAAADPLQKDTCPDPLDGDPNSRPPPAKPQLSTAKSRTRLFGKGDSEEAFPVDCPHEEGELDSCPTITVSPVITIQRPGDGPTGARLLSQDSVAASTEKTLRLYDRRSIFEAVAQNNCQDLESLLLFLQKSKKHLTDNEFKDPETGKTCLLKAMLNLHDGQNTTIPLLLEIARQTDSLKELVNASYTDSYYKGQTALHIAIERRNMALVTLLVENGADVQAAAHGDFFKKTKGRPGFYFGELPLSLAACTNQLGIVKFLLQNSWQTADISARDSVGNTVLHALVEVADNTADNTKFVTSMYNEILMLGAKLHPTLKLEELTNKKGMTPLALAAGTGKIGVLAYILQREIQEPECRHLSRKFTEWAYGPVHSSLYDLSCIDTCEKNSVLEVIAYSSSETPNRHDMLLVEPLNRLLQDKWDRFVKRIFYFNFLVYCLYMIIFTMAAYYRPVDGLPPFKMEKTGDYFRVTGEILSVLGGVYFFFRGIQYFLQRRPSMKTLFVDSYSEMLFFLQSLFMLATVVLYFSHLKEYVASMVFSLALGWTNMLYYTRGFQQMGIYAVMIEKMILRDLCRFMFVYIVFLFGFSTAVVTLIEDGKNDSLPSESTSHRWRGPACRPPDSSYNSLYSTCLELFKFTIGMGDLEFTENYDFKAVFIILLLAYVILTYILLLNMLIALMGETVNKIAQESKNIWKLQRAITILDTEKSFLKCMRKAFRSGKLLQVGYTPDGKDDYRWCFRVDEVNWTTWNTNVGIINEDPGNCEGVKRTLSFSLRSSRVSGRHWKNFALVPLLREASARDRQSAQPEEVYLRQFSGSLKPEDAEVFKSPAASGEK

With Triton-X, in the data set with HEK cells, the Intracellular propidium iodide result is “significant increase of intracellular propidium iodide”.
For the molecule `COc1cc(CNC(=O)CCCC/C=C/C(C)C)ccc1O` [capsaicin], the “Response of HEK cells expressing human TRPV1 to compound” value on human-TRPV1 was “respond”.

B1: hsTRPA1: human TRPA1 channel protein Clone 63 (non-mutated/WT), SEQ ID NO: 4; RefSeq XP_016869435.1 (protein, listed as Homo sapiens)
chain: MKRSLRKMWRPGEKKEPQGVVYEDVPDDTEDFKESLKVVFEGSAYGLQNFNKQKKLKRCDDMDTFFLHYAAAEGQIELMEKITRDSSLEVLHEMDDYGNTPLHCAVEKNQIESVKFLLSRGANPNLRNFNMMAPLHIAVQGMNNEVMKVLLEHRTIDVNLEGENGNTAVIIACTTNNSEALQILLKKGAKPCKSNKWGCFPIHQAAFSGSKECMEIILRFGEEHGYSRQLHINFMNNGKATPLHLAVQNGDLEMIKMCLDNGAQIDPVEKGRCTAIHFAATQGATEIVKLMISSYSGSVDIVNTTDGCHETMLHRASLFDHHELADYLISVGADINKIDSEGRSPLILATASASWNIVNLLLSKGAQVDIKDNFGRNFLHLTVQQPYGLKNLRPEFMQMQQIKELVMDEDNDGCTPLHYACRQGGPGSVNNLLGFNVSIHSKSKDKKSPLHFAASYGRINTCQRLLQDISDTRLLNEGDLHGMTPLHLAAKNGHDKVVQLLLKKGALFLSDHNGWTALHHASMGGYTQTMKVILDTNLKCTDRLDEDGNTALHFAAREGHAKAVALLLSHNADIVLNKQQASFLHLALHNKRKEVVLTIIRSKRWDECLKIFSHNSPGNKCPITEMIEYLPECMKVLLDFCMLHSTEDKSCRDYYIEYNFKYLQCPLEFTKKTPTQDVIYEPLTALNAMVQNNRIELLNHPVCKEYLLMKWLAYGFRAHMMNLGSYCLGLIPMTILVVNIKPGMAFNSTGIINETSDHSEILDTTNSYLIKTCMILVFLSSIFGYCKEAGQIFQQKRNYFMDISNVLEWIIYTTGIIFVLPLFVEIPAHLQWQCGAIAVYFYWMNFLLYLQRFENCGIFIVMLEVILKTLLRSTVVFIFLLLAFGLSFYILLNLQDPFSSPLLSIIQTFSMMLGDINYRESFLEPYLRNELAHPVLSFAQLVSFTIFVPIVLMNLLIGLAVGDIAEVQKHASLKRIAMQVELHTSLEKKLPLWFLRKVDQKSTIVYPNKPRSGGMLFHIFCFLFCTGEIRQEIPNADKSLEMEILKQKYRLKDLTFLLEKQHELIKLIIQKMEIISETEDDDSHCSFQDRFKKEQMEQRNSRWNTVLRAVKAKTHHLEP
Take B1: the “Responsiveness to ultrasound stimulation among TRPA channels from different species (% of cells showing a response)” value in data set [1] (HEK cells, 100 ms ultrasound pulse at 3 MPa 6.91 MHz) was “the most responsive to ultrasound stimulation”. The “Response to ultrasound stimulation (cells activated, GCaMP6f)” value in data set [1] was “robust responses; also recorded: selectively activated by ultrasound stimulation in a pressure- and duration-dependent manner”. Moreover, the “Response to ultrasound stimulation (cells activated, GCaMP6f)” value in data set [1] (listed as human homolog) is recorded as “the best candidate”. For the same molecule, in the data set on excitable HEK cells, the “Electrical properties (I-V curve) versus dTom controls” value was “no significant disruptions in their electrical properties”. Also, in the data set on excitable HEK cells (cell-attached), the “Basal rate of activity before ultrasound versus dTom controls” value is listed as “higher basal rates of activity”; the “Inward currents in response to ultrasound versus dTom controls” value is “significantly larger and more numerous”. In the data set with excitable HEK cells (patch clamp assay), the “Electrophysiological responses to ultrasound versus GFP control” value is “Significant electrophysiological responses to ultrasound”. Further, in data set [2] (E18 mouse primary cortical neurons, AAV infected, 100 ms, 2.5 MPa), the “Ultrasound-triggered intracellular calcium in expressing neurons versus CRE control” value is “significant increase in intracellular calcium”. Besides, in data set [2] (setting [5]), the Response duration was 2 to 30 s and the “Response latency after stimulus onset (majority of neurons)” value lay within 500 to 900 ms. The “Repeated ultrasound stimulation: cell health and calcium flux” value in data set [2] (repetitive 100 ms, 2.5 MPa ultrasound stimulation) is listed as “without apparent deleterious effects on cell health or a substantial decrement in calcium flux”. The “Ultrasound-evoked action potentials in assayed neurons” value in the data set with rat primary neurons (current clamp) is on record as “all assayed hsTRPA1-expressing neurons showed ultrasound-evoked action potentials”. Further, in the data set on rat primary neurons (current clamp, 6.91 MHz), the “Lowest ultrasound pressure triggering action potentials” value stood at 0.2 MPa. In addition, the “Current responses to ultrasound in voltage clamp” value in the data set with rat primary neurons (whole-cell, within a few milliseconds of ultrasound stimulation, 0.25 MPa range) is listed as over 400 pA. In data set [3] (hsTRPA1-expressing mice), the “c-fos expression in the auditory cortex after ultrasound” value is “not detected”. For the same molecule, the “Number of c-fos positive cells in cortical motor neurons after ultrasound” value in data set [3] (hsTRPA1-expressing transgenic mice versus GFP) was “significantly increased the number of c-fos positive cells”. Moreover, the “Ability to learn the rotarod task versus GFP-expressing animals” value in data set [4] was “comparable ability to learn the rotarod task”.
